Assay results: PMC4107134

Key:
[1] = molecular target: integrin αIIbΔ996β3 (αIIb tail truncated after GFFKR) (UniProt P05106); assay: pull-down
[2] = molecular target: integrin αIIbβ3, wild type (UniProt P05106); assay: pull-down

Kd [1]: 206 nM | Kd [2]: 214 nM
Substance: talin head domain (THD, talin residues 1-433), purified (from UniProt P26039 1-433) (domain or fragment)
